Reference: publication PMC7617285, “Dehydrogenase versus oxidase function: the interplay between substrate binding and flavin microenvironment” (ACS catalysis, 2025)

Tested on: T1, COc1cc(CO)ccc1O
T1 construct: SUMO tag cleaved for crystals; non-covalent FAD
Assay: purified protein
Format: biochemical, Novosphingobium sp.
Details: molecular oxygen as acceptor, 35 °C, 50 mM Tris-HCl pH 9.0, 300 mM NaCl

Substance | Km [µM] | kcat [s⁻¹] | kcat/Km [M⁻¹ s⁻¹]
nsVAO (vanillyl-alcohol oxidase from Novosphingobium sp.) (Novosphingobium sp.) | 207 ± 28 | 0.29 ± 0.01 | 1400
nsVAO (vanillyl-alcohol oxidase from Novosphingobium sp.) (Novosphingobium sp.; T181D) | 203 ± 22 | 0.28 ± 0.01 | 1400
